The supplement of paper PMC7877785
± gives the uncertainty stated by the source.

Assay: self-splicing fitness, log relative to wild type (ln ratio); higher = more splicing; Tetrahymena group I intron in knt gene, E. coli kanamycin selection, DiMSum; sequences stand for … in CUCUCU…GGAGGGAAAAGUUAUCAGGCAUGCACCUGGUAGCUAGUCUUUAAACCAAUAGAUUGCAUCGGUUUAAAAGGCAAGACCGUCAAAUUGCGGGAAAGGGGUCAACAGCCGUUCAGUACCAAGUCUCAGGGGAAACUUUGAGAUGGCCUUGCAAAGGGUAUGGUAAUAAGCUGACGGACAUGGUCCUAACCACGCAGCCAAGUCCUAAGUCAACAGAUCUUCUGUUGAUAUGGAUGCAGUUCACAGACUAAAUGUCGGUCGGGGAAGAUGUAUUCUUCUCAUAAGAUAUAGUCGGACCUCUCCUUAAUGGGAGCUAGCGGAUGAAGUGAUGCAACACUGGAGCCGCUGGGAACUAAUUUGUAUGCGAAAGUAUAUUGAUUAGUUUUGGAGUACUCGUGGUCG
In short: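 Pooled colonies went to amplicon sequencing on an Illumina HiSeq 2500 after six replicate transformations. The plates were LB agar with 100 μg/mL carbenicillin, 50 μM IPTG and 0.2% rhamnose, with or without 25 μg/mL kanamycin, incubated overnight at 37°C or 30°C. The E. coli BL21(DE3) library had all eight P1ex-region intron nucleotides randomised, the intron placed in the knt kanamycin-resistance gene on pET-22b(+). DiMSum fitness is the error-weighted combination of replicate fold changes, kanamycin against none, normalised to wild type.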

Row | Sequence | self-splicing fitness (ln) (30 °C) | self-splicing fitness (ln) (37 °C)
1 | CGUCAGCAAUAUUACGCCCU | -1.89 ± 0.15 | -0.223 ± 0.23
2 | CGUCAGCAAUAUUACGCCGU | -2.49 ± 0.12 | 0.143 ± 0.11
3 | CGUCAGCAAUAUUACGCCUA | -2.32 ± 0.29 | -0.757 ± 0.18
4 | CGUCAGCAAUAUUACGCGAG | -4.12 ± 0.36 | -0.926 ± 0.17
5 | CGUCAGCAAUAUUACGCGUC | -2.38 ± 0.42 | 
6 | CGUCAGCAAUAUUACGGCAA | -1.75 ± 0.14 | -1.89 ± 0.13
7 | CGUCAGCAAUAUUACGGCCC | -1.75 ± 0.17 | -0.728 ± 0.24
8 | CGUCAGCAAUAUUACGUAAG | 0.214 ± 0.054 | 0.2 ± 0.07
9 | CGUCAGCAAUAUUACGUACC | -1.33 ± 0.13 | 0.208 ± 0.15
10 | CGUCAGCAAUAUUACGUACG | -3.6 ± 0.43 | -2.97 ± 0.37
11 | CGUCAGCAAUAUUACGUCGA | -2.18 ± 0.1 | -1.77 ± 0.14
12 | CGUCAGCAAUAUUACGUUGG | -3.57 ± 0.11 | -2.78 ± 0.16
13 | CGUGAGCAAUAUUACGAAAA |  | -2.88 ± 0.43
14 | CGUGAGCAAUAUUACGACGU | -2.12 ± 0.19 | -2.37 ± 0.18
15 | CGUGAGCAAUAUUACGAGUG | -1.24 ± 0.12 | 0.147 ± 0.16
16 | CGUGAGCAAUAUUACGAGUU | -3.88 ± 0.47 | -3.72 ± 0.36
17 | CGUGAGCAAUAUUACGCACU | -0.892 ± 0.13 | -0.687 ± 0.13
18 | CGUGAGCAAUAUUACGCAUC | -1.85 ± 0.48 | -2.43 ± 0.35
19 | CGUGAGCAAUAUUACGCGUG | -2 ± 0.13 | -0.684 ± 0.1
20 | CGUGAGCAAUAUUACGCUUC | -3.91 ± 0.41 | -3.07 ± 0.43
21 | CGUGAGCAAUAUUACGGAAG | -1.17 ± 0.1 | -1.01 ± 0.13
22 | CGUGAGCAAUAUUACGGCGA | -2.31 ± 0.36 | -0.845 ± 0.34
23 | CGUGAGCAAUAUUACGGCGC | -3.69 ± 0.34 | -2.43 ± 0.37
24 | CGUGAGCAAUAUUACGGUGA | -2.84 ± 0.31 | -2.04 ± 0.38

Row | Sequence | self-splicing fitness (ln) (30 °C) | self-splicing fitness (ln) (37 °C)
25 | CGUGAGCAAUAUUACGUAUA | -2.71 ± 0.18 | -1.55 ± 0.18
26 | CGUGAGCAAUAUUACGUCAU | -2.46 ± 0.21 | -2.81 ± 0.24
27 | CGUGAGCAAUAUUACGUCCG | -1.95 ± 0.16 | -0.866 ± 0.22
28 | CGUGAGCAAUAUUACGUGCA | -1.36 ± 0.13 | 0.0971 ± 0.14
29 | CGUGAGCAAUAUUACGUUGA | -2.89 ± 0.3 | -2.94 ± 0.43
30 | CGUGAGCAAUAUUACGUUGC | -2.69 ± 0.21 | -2.51 ± 0.32
31 | CGUGAGCAAUAUUACGUUGG | -2.62 ± 0.12 | -1.45 ± 0.11
32 | CGUUAGCAAUAUUACGAAAA | -2.76 ± 0.49 | -1.83 ± 0.3
33 | CGUUAGCAAUAUUACGAACC | -0.385 ± 0.069 | -0.0684 ± 0.073
34 | CGUUAGCAAUAUUACGACCU | -0.403 ± 0.2 | -0.596 ± 0.18
35 | CGUUAGCAAUAUUACGAGCA | -0.917 ± 0.09 | -0.809 ± 0.089
36 | CGUUAGCAAUAUUACGAGCC | -2.52 ± 0.21 | 0.132 ± 0.17
37 | CGUUAGCAAUAUUACGAUCA | -0.373 ± 0.16 | 0.245 ± 0.17
38 | CGUUAGCAAUAUUACGAUGA | -1.79 ± 0.13 | -0.842 ± 0.13
39 | CGUUAGCAAUAUUACGAUUG | -0.332 ± 0.073 | -0.316 ± 0.084
40 | CGUUAGCAAUAUUACGCAGC | -2.48 ± 0.25 | -3.07 ± 0.43
41 | CGUUAGCAAUAUUACGCCGC | -3.14 ± 0.3 | -2.73 ± 0.43
42 | CGUUAGCAAUAUUACGCGAC | -3.76 ± 0.26 | -1.84 ± 0.17
43 | CGUUAGCAAUAUUACGCGGC | -2.07 ± 0.23 | -2.19 ± 0.26
44 | CGUUAGCAAUAUUACGCGGG | -3.91 ± 0.24 | -3.13 ± 0.29
45 | CGUUAGCAAUAUUACGCGGU | -3.07 ± 0.19 | -3.35 ± 0.29
46 | CGUUAGCAAUAUUACGCUAG | -2.66 ± 0.17 | -1.51 ± 0.25
47 | CGUUAGCAAUAUUACGCUCU | -1.56 ± 0.14 | -1.07 ± 0.17
48 | CGUUAGCAAUAUUACGGAGU | -4.73 ± 0.31 | -3.23 ± 0.26
